Data published in patent US20250340631A1 (HARBOUR BIOMED SHANGHAI, published 2025).

What was measured:
[1] = target: T1, Biotinylated human CD3E&D (human, UniProt P07766 23-126; P04234 22-105, biotin label); assay: BLI (Octet), biotinylated CD3 on SA sensor, 1:1 global fit;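 note: antibodies applied as analyte in 2-fold serial dilutions, with a 180 s association phase followed by a 300 s dissociation phase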
T1 construct: also called CDD-H82W6
Experimental: The binding kinetics between proteins and antibodies was analyzed by the Biolayer Interferometry (BLI) technique using an Octet Red 96e (Fortebio) system. Human CD3E (Acro, CDE-H5223), cynomolgus CD3E (Acro, CDE-C5226) and murine CD3E (Acro, CDE-M5256) were mixed with biotin (Thermo Scientific, A39257) in a molar ratio of 1:3. The mixture was incubated at 4° C. overnight, and then excess biotin was removed to obtain biotinylated CD3E. The rotation speed was set at 1000 rpm for the system. […] After being equilibrated in the buffer for 120 s, the SA sensor with captured CD3 was allowed to bind to 2-fold serially diluted antibodies. […] Finally, the SA sensor was immersed in a 10 mM glycine-hydrochloric acid solution at pH 1.5 for regeneration to elute the antibodies bound to the sensor. […] For the interactions of fast binding and fast dissociation, the “steady state” method was selected to fit the data to obtain KD(M) values.

[2] = target: T2, human CLDN18.2 (human); assay: competition FACS on HEK293/hCLDN18.2 cells; competitor 200 nM biotinylated PR004549
T2 construct: the HEK293 line was made with a GenScript plasmid; also called hCLDN18.2
Experimental: (§1) This example is to study the binding of anti-human CLDN18.2 HCAb monoclonal antibodies to the epitope region of human CLDN18.2 antigen. Competitive binding experiments were performed at the cellular level using HEK293/hCLDN18.2 cells overexpressing human CLDN18.2. […] Then suspension of HEK293/hCLDN18.2 cells overexpressing human CLDN18.2 were adjusted to 3×10⁶ cells/mL, seeded 50 L/well. The cells were co-incubated at 4° C. for 2 h. The cells in each well were washed twice with 200 μL of pre-cooled FACS buffer (2% FBS in PBS) and centrifuged at 500 g at 4° C. for 5 min, and then the supernatant was discarded. […] The cells in each well were washed twice with 200 μL of pre-cooled FACS buffer (2% FBS in PBS) and centrifuged at 500 g at 4° C. for 5 min, and then the supernatant was discarded. Finally, the cells in each well were resuspended in 200 μL of pre-cooled FACS buffer, and the fluorescence signal values were read using a BD FACS CANTOII.

[3] = target: T2, human CLDN18.2; assay: FACS on SNU601 cells
Experimental: (§2) The binding affinity of an antibody was detected by FACS using human CLDN18.1-expressing HEK293 cells, human CLDN18.2-expressing HEK293 cells, NUGC4_D8 cells and SNU601 cells endogenously expressing human CLDN18.2 (Cobioer, CBP60507). […] The cell density was adjusted to 10⁶ cells/mL, and 50 μL of the cell suspension was added to each well of a 96-well plate. Antibodies were diluted to different concentrations with FACS buffer, and 50 μL of the antibody dilution was added to each well of the 96-well plate. After 2 h of incubation at 4° C., the plate was washed twice with FACS buffer. […] After 1 h of incubation at 4° C., the plate was washed twice with FACS buffer. The cells were resuspended in fixative solution, and then the fluorescence of the cells was monitored using an FACS instrument (ACEA NovoCyte).

[4] = target: T2, human CLDN18.2; assay: competition FACS on HEK293/hCLDN18.2 cells; competitor 10 nM biotinylated PR000400
Experimental: as §1

[5] = target: T2, human CLDN18.2; assay: FACS on HEK293/hCLDN18.2 cells
Experimental: as §2

[6] = target: T2, human CLDN18.2; assay: FACS on NUGC4_D8 cells
Experimental: as §2

[7] = target: T2, human CLDN18.2; assay: FACS on NUGC4_D8 cells; remark: listed apart in the source
Experimental: as §2

[8] = target: T2, human CLDN18.2; assay: competition FACS on HEK293/hCLDN18.2 cells; competitor 200 nM biotinylated PR004549; remark: listed apart in the source
Experimental: (§3) This example is to study the binding of anti-human CLDN18.2 bispecific antibodies to the epitope region of a human CLDN18.2 antigen. Competitive binding experiments were performed at the cellular level using human CLDN18.2-overexpressing HEK293/hCLDN18.2 cells. […] The mixture was well mixed and incubated at 4° C. for 30 min. 25 μL of the corresponding serially diluted non-biotinylated anti-human CLDN18.2 antibody was added. The mixture was well mixed and incubated at 4° C. for 1 h. The cells in each well were washed twice with 200 μL of pre-cooled FACS buffer (2% BSA in DPBS) and centrifuged at 500 g at 4° C. for 5 min, and then the supernatant was discarded. A fluorescent secondary antibody (Jackson ImmunoResearch, 016-540-084, 1:500) was added. The mixture was incubated at 4° C. in the absence of light for 1 h. The cells in each well were washed twice with 200 μL of pre-cooled FACS buffer (2% BSA in DPBS) and centrifuged at 500 g at 4° C. for 5 min, and then the supernatant was discarded. Finally, the cells in each well were resuspended in 200 μL of pre-cooled FACS buffer, and the fluorescence signal values were read using a ACEA_NovoCyte.

[9] = target: T2, human CLDN18.2; assay: competition FACS on HEK293/hCLDN18.2 cells; competitor 10 nM biotinylated PR000400; remark: listed apart in the source
Experimental: as §3

T1 sequence (P07766 23-126, chain 1 of 2): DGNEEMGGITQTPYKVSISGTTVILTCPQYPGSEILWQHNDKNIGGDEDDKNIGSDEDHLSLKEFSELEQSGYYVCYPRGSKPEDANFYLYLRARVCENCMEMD
T1 sequence (P04234 22-105, chain 2 of 2): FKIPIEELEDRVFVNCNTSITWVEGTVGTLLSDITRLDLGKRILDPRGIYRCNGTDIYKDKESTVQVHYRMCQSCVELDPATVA

Row | Binder | IC50 [2] [nM] | Maximum inhibition rate (%) [2] [%] | EC50 [3] [nM] | Emax (MFI) [3] [MFI] | IC50 [4] [nM] | Maximum inhibition rate (%) [4] [%] | EC50 [5] [nM] | Emax (MFI) [5] [MFI] | EC50 [6] [nM] | Emax (MFI) [6] [MFI] | EC50 [7] [nM] | Emax (MFI) [7] [MFI] | further results
1 | PR002199 (bispecific antibody) chain 1: not shown chain 2: EVQLVESGGGLVQPGRSLRLSCAASGFTFDDYAMHWVRQAPGKGLEWVSGISWNSGSIGYADSVKGRFTISRDNAKNSLYLQMNSLRAEDTALYYCAKDSRGYGDYRLGGAYWGQGTLVTVSSASTKGPSVFPLAPSSKSTSGGTAALGCLVKDYFPEPVTVSWNSGALTSGVHTFPAVLQSSGLYSLSSVVTVPSSSLGTQTYICNVNHKPSNTKVDKKVEPKSCDKTHTCPPCPAPEAAGGPSVFLFPPKPKDTLMISRTPEVTCVVVDVSHEDPEVKFNWYVDGVEVHNAKTKPREEQYNSTYRVVSVLTVLHQDWLNGKEYKCKVSNKALGAPIEKTISKAKGQPREPQVYTLPPCREEMTKNQVSLWCLVKGFYPSDIAVEWESNGQPENNYKTTPPVLDSDGSFFLYSKLTVDKSRWQQGNVFSCSVMHEALHNHYTQKSLSLSPGK chain 3: EVQLLESGGGLVQPGGSLRLSCAASGFTVSSYGMSWVRQAPGKGPEWVSGIRGSDGSTYYADSVKGRFTISRDNSKNTLYLQMNSLRAEDTAVYYCAKQGENDGPFDHRGQGTLVTVSSGGGGSEVQLLESGGGLVQPGGSLRLSCAASGFTVSSYGMSWVRQAPGKGPEWVSGIRGSDGSTYYADSVKGRFTISRDNSKNTLYLQMNSLRAEDTAVYYCAKQGENDGPFDHRGQGTLVTVSSASEPKSSDKTHTCPPCPAPEAAGGPSVFLFPPKPKDTLMISRTPEVTCVVVDVSHEDPEVKFNWYVDGVEVHNAKTKPREEQYNSTYRVVSVLTVLHQDWLNGKEYKCKVSNKALGAPIEKTISKAKGQPREPQVCTLPPSREEMTKNQVSLSCAVKGFYPSDIAVEWESNGQPENNYKTTPPVLDSDGSFFLVSKLTVDKSRWQQGNVFSCSVMHEALHNHYTQKSLSLSPGK |  |  |  |  |  |  |  |  |  |  |  |  | Kd [1]: 241 nM; koff [1]: 0.0518 s⁻¹; kon [1]: 215000 M⁻¹ s⁻¹
2 | PR004536 (antibody, V domains shown, anti-CLDN18.2 HCAb: VH fused to human IgG1 Fc, no light chain; also called R1029P028A11) VH: EVQLVESGGGLVQPGGSLRLSCAASGFTFSSYWMYWVRQVPGKGLVWVSHINSDGSTTQYADSVKGRFTISRDNAKNMLYLQMNSLRAEDTAVYYCARDFPVLGGSHFDFQHWGQGTLVTVSS | 74.1 | 90.1 | 52.7 | 15800 | 103 | 98 |  |  |  |  |  |  | 
3 | PR004227 (antibody, V domains shown, anti-CLDN18.2 HCAb: VH fused to human IgG1 Fc, no light chain; also called R1029P(CG20)001B02) VH: EVQLVESGGGLVQPGGSLRLSCAASGFTFSSYWMHWVRQAPGKGLEWVSYINNDGSSTRYADSVKGRFTISRDNAKNTLYLQMNSLRAEDTAVYYCTEAPPYGNYERDYWGQGTLVTVSS | 20.3 | 93.8 | 28.5 | 14800 | 22.3 | 98.3 |  |  |  |  |  |  | 
4 | PR004953 (antibody, V domains shown, anti-CLDN18.2 HCAb: VH fused to human IgG1 Fc, no light chain; also called R1029P024B07) VH: EVQLVESGGGVVQPGRSLRLSCAASGFTFSSYGMHWVRQAPGKGLEWVAVIGYDGRNKYYADSVKGRFTISRDNSKNTLFLQMDNLRAEDTALYYCARHFPSLPGTTDTFDIRGPGTMVTVSS | 13.8 | 93.2 |  |  | 16.7 | 98 |  |  | 12 | 219000 |  |  | 
5 | PR004533 (antibody, V domains shown, anti-CLDN18.2 HCAb: VH fused to human IgG1 Fc, no light chain; also called R1029P021E10) VH: EVQLVESGGGLVQPGGSLRLSCAASGFTFSSYWMHWVRQVPGKGLVWVSRINSDGSRTIYADSVKGRFTISRDNAKNTLYLQMNSLRAEDTAVYYCARGEDHDILTGYPIRGQGTTVTVSS | 23.2 | 93.7 | 11.9 | 11300 | 25.5 | 98.6 |  |  | 25 | 183000 |  |  | 
6 | PR007243 (antibody, human IgG1, V domains shown, HCDR2 PTM-removal mutant of PR004533; HCAb, human IgG1 Fc; also called 4533_M3D9) VH: EVQLVESGGGLVQPGGSLRLSCAASGFTFSSYWMHWVRQVPGKGLVWVSRISSAGSRTIYADSVKGRFTISRDNAKNTLYLQMNSLRAEDTAVYYCARGEDHDILTGYPIRGQGTTVTVSS |  |  |  |  |  |  | 13.3 | 1.47e+06 |  |  | 78.2 | 176000 | 
7 | PR007242 (antibody, human IgG1, V domains shown, HCDR2 PTM-removal mutant of PR004533; HCAb, human IgG1 Fc; also called 4533_M10E1) VH: EVQLVESGGGLVQPGGSLRLSCAASGFTFSSYWMHWVRQVPGKGLVWVSRINFDSSRTIYADSVKGRFTISRDNAKNTLYLQMNSLRAEDTAVYYCARGEDHDILTGYPIRGQGTTVTVSS |  |  |  |  |  |  | 11.3 | 1.48e+06 |  |  | 69.5 | 176000 | 
8 | PR004540 (antibody, V domains shown, anti-CLDN18.2 HCAb: VH fused to human IgG1 Fc, no light chain; also called R1029P037B07) VH: EVQLVESGGGLVQPGGSLRLSCAASGFTFSIYWMHWVRQVPGKGLVLVSRISSDGNYTSYADSVKGRFTISRDNAKNTLYLQMNSLRAEDTAVYLCARGEDHDMLTGYPVRGQGTTVTVSS | 50 | 89.2 |  |  | 64.1 | 95.8 |  |  |  |  |  |  | 
9 | PR004950 (antibody, V domains shown, anti-CLDN18.2 HCAb: VH fused to human IgG1 Fc, no light chain; also called R1029P021F07) VH: EVQLVESGGGLVQPGGSLRLSCAASGFTFSAYWMHWVRQVPGKGLVWVSRINSDGSRTIYADSVKGRFTISRDNAKNTLYLQMNSLRAEDTAVYYCARGEDHDILTGYPIRGQGTMVTVSS | 19.9 | 94.3 | 14.6 | 13600 | 23.5 | 98.5 |  |  | 16.1 | 206000 |  |  | 
10 | PR004949 (antibody, V domains shown, anti-CLDN18.2 HCAb: VH fused to human IgG1 Fc, no light chain; also called R1029P021C02) VH: EVQLVESGGGLVQPGGSLRLSCAASGFTFSAYWMHWVRQVPGRGLVWVSRINSDGSRTIYADSVKGRFTISRDNAKNTLYLQMNSLRAEDTAVYLCARGEDHDMLTGYPVRGQGTMVTVSS | 31 | 94.2 | 12.8 | 18300 | 35.4 | 98.5 |  |  | 21.8 | 265000 |  |  | 
11 | PR000400 (antibody, human IgG1, kappa, V domains shown, also called IMAB362 analogue) VH: QVQLQQPGAELVRPGASVKLSCKASGYTFTSYWINWVKQRPGQGLEWIGNIYPSDSYTNYNQKFKDKATLTVDKSSSTAYMQLSSPTSEDSAVYYCTRSWRGNSFDYWGQGTTLTVSS VL: DIVMTQSPSSLTVTAGEKVTMSCKSSQSLLNSGNQKNYLTWYQQKPGQPPKLLIYWASTRESGVPDRFTGSGSGTDFTLTISSVQAEDLAVYYCQNDYSYPFTFGSGTKLEIKR | 11.5 | 90.7 |  |  | 20.1 | 96.4 | 5.6 | 1.32e+06 | 17 | 101000 | 56.4 | 58400 | IC50 [8]: 25.2 nM; Maximum inhibition rate (%) [8]: 52.3%; IC50 [9]: 36.2 nM; Maximum inhibition rate (%) [9]: 92.7%

Further lines, with some results ahead:

Row | IC50 [2] [nM] | Maximum inhibition rate (%) [2] [%] | EC50 [3] [nM] | Emax (MFI) [3] [MFI] | IC50 [4] [nM] | Maximum inhibition rate (%) [4] [%] | EC50 [5] [nM] | Emax (MFI) [5] [MFI] | EC50 [6] [nM] | Emax (MFI) [6] [MFI] | EC50 [7] [nM] | Emax (MFI) [7] [MFI] | Binder | further results
12 |  |  |  |  |  |  | 35.3 | 1.27e+06 |  |  |  |  | PR007247 (antibody, human IgG1, V domains shown, HCDR2 PTM-removal mutant of PR004536; HCAb, human IgG1 Fc; also called 4536_M8A6) VH: EVQLVESGGGLVQPGGSLRLSCAASGFTFSSYWMYWVRQVPGKGLVWVSHINPLGSTTQYADSVKGRFTISRDNAKNMLYLQMNSLRAEDTAVYYCARDFPVLGGSHFDFQHWGQGTLVTVSS | 
13 |  |  |  |  |  |  | 12.8 | 1.31e+06 |  |  | 74.6 | 174000 | PR007248 (antibody, human IgG1, V domains shown, HCDR2 PTM-removal mutant of PR004533; HCAb, human IgG1 Fc; also called 4533_M10E7) VH: EVQLVESGGGLVQPGGSLRLSCAASGFTFSSYWMHWVRQVPGKGLVWVSRINHDSSRTIYADSVKGRFTISRDNAKNTLYLQMNSLRAEDTAVYYCARGEDHDILTGYPIRGQGTTVTVSS | 
14 |  |  |  |  |  |  | 11.7 | 1.3e+06 |  |  | 49.2 | 153000 | PR007244 (antibody, human IgG1, V domains shown, HCDR2 PTM-removal mutant of PR004533; HCAb, human IgG1 Fc; also called 4533_M4H6) VH: EVQLVESGGGLVQPGGSLRLSCAASGFTFSSYWMHWVRQVPGKGLVWVSRIDSRGSRTIYADSVKGRFTISRDNAKNTLYLQMNSLRAEDTAVYYCARGEDHDILTGYPIRGQGTTVTVSS | 
15 |  |  |  |  |  |  | 13 | 1.31e+06 |  |  | 63.2 | 137000 | PR007245 (antibody, human IgG1, V domains shown, HCDR2 PTM-removal mutant of PR004533; HCAb, human IgG1 Fc; also called 4533_M6E6) VH: EVQLVESGGGLVQPGGSLRLSCAASGFTFSSYWMHWVRQVPGKGLVWVSRISSDASRTIYADSVKGRFTISRDNAKNTLYLQMNSLRAEDTAVYYCARGEDHDILTGYPIRGQGTTVTVSS | 
16 |  |  |  |  |  |  | 14.4 | 1.37e+06 |  |  | 55.9 | 166000 | PR007246 (antibody, human IgG1, V domains shown, HCDR2 PTM-removal mutant of PR004533; HCAb, human IgG1 Fc; also called 4533_M3F10) VH: EVQLVESGGGLVQPGGSLRLSCAASGFTFSSYWMHWVRQVPGKGLVWVSRISSTGSRTIYADSVKGRFTISRDNAKNTLYLQMNSLRAEDTAVYYCARGEDHDILTGYPIRGQGTTVTVSS | 
